Data on 21 sequences can be found in the supplement of paper PMC9170038.

In this data set the test system is MS2 coat protein. Description: apparent KD of MS2 coat protein; designed switch direction (-1 OFF switch, 1 ON switch): 1; higher = weaker reporter binding. The essentials: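 Each step of the titration lasted 0.8–1.5 h at the lowest concentration and 10–20 min at the highest. The protein, SNAP-549-labelled MS2 coat protein, went from 0.7 or 1.5 nM doubling to 3 µM over RNA switches transcribed on Illumina chips by stalled E. coli RNA polymerase. Normalised cluster fluorescence was curve-fitted, and the per-design median over clusters is given as apparent KD.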

Where [1] appears, read: input ligand: microRNA oligo, concentration not stated.
[2] abbreviates: Eterna round: R95, input ligand: FMN 200 uM.
The mark [3] stands for this setting: Eterna round: R95, input ligand: microRNA oligo, concentration not stated.
[4] abbreviates: Eterna round: R95, input ligand: none.

As to “GGAUGAUAGACAGGAUAUUGAAUGUAAUUAGGACAAGAAGGGUCAAUGAUUUAAACGACCAGUUACAUGAGGAUCACCCAUGUU [JR_SSNG1_Sub025] (Eterna round: R96, puzzle: Same State NG 1)”, the “apparent KD of MS2 coat protein” value is, setting by setting: (input ligand: FMN 200 uM) 44.9 nM; under setting [1], 38.1 nM; (input ligand: none) 49.1 nM.
The like results for “CCGGCAAGUAUAGGAUAUCCCGCAACAGAAGCGGGAGAAGGGUGCCAAACAUGAGGAUCACCCAUGUACACCGGAAAUAAAUAA [Veaat] (Eterna round: R96, puzzle: Same State NG 1)” were, in that order, 92.9 nM, 46.6 nM and 30.5 nM.
Turning to “UGUCCAGCCUGAGCUGGACAAAAGCAUGUACAUGAGGAUCACCCAUGUUCAUGUACAAGCUUUUUGCUCGUCUUAAU [salish99_208a_r3_031] (puzzle: Sensor for hsa-mir-208a)”, the “apparent KD of MS2 coat protein” value is, setting by setting: under setting [2], 497 nM; under setting [3], 14.1 nM; under setting [4], 445 nM.
Regarding “CGGUGUGAGAAAGGAUAUGUUCGCUAGUCGCGAGCAGAAGGUUCUGCGCGCUGCUAUACGAACAUGAGGAUCACCCAUGUAAAA [Laqu] (Eterna round: R96, puzzle: Same State NG 1)”, the “apparent KD of MS2 coat protein” value was 130 nM (input ligand: FMN 200 uM), 11.8 nM under setting [1] and 69.2 nM (input ligand: none).
Regarding “AUGCCAAAAUGAGGAUAUGGAGCCUUAUUGGCUCCAGAAGGCGUGACAUGAGGAUCACCCAUGUGGCAGUGGUCUAAUGACCAC [Eli NG1ss - 44] (Eterna round: R96, puzzle: Same State NG 1)”, the “apparent KD of MS2 coat protein” value (input ligand: FMN 200 uM) worked out at 21.9 nM, the “apparent KD of MS2 coat protein” value under setting [1] was 53.3 nM and the “apparent KD of MS2 coat protein” value (input ligand: none) was 77 nM.
The corresponding values for “GCUGCAAUUAACGCCUACAUGAGGAUCACCCAUGUAUGUAGGCAGGAUAUCGUUUGCAAAGCAAACGAGAAGGGCCGUAGUAGC [Mat - Same State NG 3 - JL Mod - D34] (Eterna round: R96, puzzle: Same State NG 3)” are 28.9 nM, 48.9 nM and 73.8 nM.
The like results for “UGACACACGGCAGGAUAUGCUUAGCAAAGCUAAGCAGAAGGGCCUCAUGUCGUGGAAACGUGACAUGAGGAUCACCCAUGUUGC [Omei SS(NG)1 Cv2] (Eterna round: R96, puzzle: Same State NG 1)” were, in that order, 306 nM, 46.8 nM and 57.9 nM.
The like results for “GGUGCCAAAUAAGCCUACAUGAGGAUCACCCAUGUAUGUAGGCAGGAUAUCGUAUGCAAAGCAUACGAGAAGGGCUGAGGCACC [Mat - Same State NG 3 - JL Mod - D54] (Eterna round: R96, puzzle: Same State NG 3)” were, in that order, 25.7 nM, 51.6 nM and 80.5 nM.
For “GGACGUCAAUAUGAAUUCCCACAUGAGGAUCACCCAUGUCAUGAGGAUAUGGAUCCUAAUUGGAUCCAGAAGGCAUGGACGUCC [Fiskers NG3ss - 37] (Eterna round: R96, puzzle: Same State NG 3)”, the “apparent KD of MS2 coat protein” value is 17.8 nM (input ligand: FMN 200 uM), 13 nM under setting [1] and 17.8 nM (input ligand: none).
As for “GUGGUCAGACAUGAGGAUCACCCAUGUGGAAUAAAUAAGGAACAGGAUAUGGAAUAUAGGAUAUACCAGAAGGGUUGGUUGGUG (Eterna round: R96, puzzle: Same State NG 3)”, the “apparent KD of MS2 coat protein” value under setting [1] was 62.3 nM.
As to “AUUUAACAAGCUUUUUGCUCGUCUUAUAAACAUGAGGAUCACCCAUGUAAUAGCGUGAGAGUAAUUAAUUUAAUUAU [JMF 100] (puzzle: Sensor for hsa-mir-208a)”, the “apparent KD of MS2 coat protein” value is, setting by setting: under setting [2], 15.5 nM; under setting [3], 32.7 nM; under setting [4], 14.1 nM.
The corresponding values for “CUGCUACAUGAGGAUCACCCAUGUUGGAGUAAUGCAGGAUAUGUGAGACCAGAAGAUAAAACAGAAGGGCAAGGAG [JR_SS!_Sub008] (puzzle: Same State 1)” are 18.8 nM, 20.8 nM and 24.6 nM.
Consider “UGUUGUAUUACAGGAUAUCUAUUAGUUUUUUUUAGAGAAGGGUAUUCACAUGAGGAUCACCCAUGUAUAUACGAGGAAGUUGUG [JMF's solution 96] (Eterna round: R96, puzzle: Same State NG 1)”, for which the “apparent KD of MS2 coat protein” value under setting [1] stood at 36.8 nM.
With “UUUAGAUUCAGAGGAUAUUGAUGUUGUAAGUAACAAGAAGGCUGAUUGGUUAGAAUUGUUUAUUAACAUGAGGAUCACCCAUGU [JR_SSNG1_Sub010] (Eterna round: R96, puzzle: Same State NG 1)”, the “apparent KD of MS2 coat protein” value runs as follows: (input ligand: FMN 200 uM) 18.1 nM; under setting [1], 28.2 nM; (input ligand: none) 30.6 nM.
“GCGAUAUGAUGUUACAUGAGGAUCACCCAUGUAGCGACAGCUAAGGAUAUUGGAAAGGGAGGAGACGAGAAGGUAGGGUCACGC [AK SSNG3-V2-24] (Eterna round: R96, puzzle: Same State NG 3)”: the “apparent KD of MS2 coat protein” value came out at 22.9 nM (input ligand: FMN 200 uM), 15.8 nM under setting [1] and 19.7 nM (input ligand: none).
The corresponding values for “CGACACACGGCAGGAUAUCGAUUCCAAAGGAAUCGAGAAGGGCCUCAUGUCGUGGAAACGUGACAUGAGGAUCACCCAUGUUGC [Omei SS(NG)1 Cv18] (Eterna round: R96, puzzle: Same State NG 1)” are 26.8 nM, 11.6 nM and 24.6 nM.
As to “GUGGCCCAGGCACAGGAUAUGUUUCUCGUAACAUGAGGAUCACCCAUGUGCCUAUGAGAUUUAAUGCAGAAGGGUGCACGCCACA [Mat - Same State 2 - Mod of UCT - D78] (puzzle: Same State 2)”, the “apparent KD of MS2 coat protein” value is 18.8 nM under setting [2], 164 nM under setting [3] and 199 nM under setting [4].
As for “AGUCCAGCCUGAGCUGGACAAAAGCAUGUACAUGAGGAUCACCCAUGUUCAUGUACAAGCUUUUUGCUCGUAUUAAA [Mat - hsa-mir-208a - Mod of JL - 52] (puzzle: Sensor for hsa-mir-208a)”, the “apparent KD of MS2 coat protein” value by setting is: under setting [2], 555 nM; under setting [3], 14.8 nM; under setting [4], 566 nM.
As for “GGUAGGUUACUACCAAACAUGAGGAUCACCCAUGUAAGUGGGAAGGAUAUGGUACCUUUUAGGUACCAGAAGGUCCAUAUAUUU [JL Fiskers NG3ss - 2 mod 8] (Eterna round: R96, puzzle: Same State NG 3)”, the “apparent KD of MS2 coat protein” value is 231 nM (input ligand: FMN 200 uM), 847 nM under setting [1] and 1140 nM (input ligand: none).
Regarding “CCGAUGUGGGUACAGGAUAUGUGGGCCUCCACAUGAGGAUCACCCAUGUCGGAGGCAAAGCGGCUACAGAAGGGUGCGUGCUCGA [Riinceer] (puzzle: Same State 2)”, the “apparent KD of MS2 coat protein” value under setting [2] came to 13.1 nM, the “apparent KD of MS2 coat protein” value under setting [3] came to 11.3 nM and the “apparent KD of MS2 coat protein” value under setting [4] was found to be 12.3 nM.
The corresponding values for “CGUCCGGCCUGUGCUGGCCGGUUGCUUGUACAUGAGGAUCACCCAUGUUCAUGUGCAGGCUUUUUGCUCGUCUUGUG [salish99_mir208a_015] (puzzle: Sensor for hsa-mir-208a)” are 38.3 nM, 31.1 nM and 45.8 nM.
